Assay results reported in patent US9657062B2, “Ghrelin analogues” (Zealand Pharma A/S, priority 2012, dated 2017).
*1 amine or outer side, *2 acyl side, *3 side chain or, on linkers, in order; H or OH if unused. [ ]: non-standard residue; d: D form. The star is where a group is joined. Achc(cis-1,4) = O=C([C@H]1CC[C@@H](N[*:1])CC1)[*:2]; Achc(trans-4) = O=C([C@H]1CC[C@H](N[*:1])CC1)[*:2]; Palmitoyl = CCCCCCCCCCCCCCCC(=O)*; 3Amb = NCc1cccc(C(=O)O)c1; Octanoyl = CCCCCCCC(=O)*; Inp = O=C(O)C1CCNCC1; Octyl = CCCCCCCC*

Biological target: human growth hormone secretagogue receptor type 1a (human, UniProt Q92847 1-366)
Sequence (Q92847 whole entry): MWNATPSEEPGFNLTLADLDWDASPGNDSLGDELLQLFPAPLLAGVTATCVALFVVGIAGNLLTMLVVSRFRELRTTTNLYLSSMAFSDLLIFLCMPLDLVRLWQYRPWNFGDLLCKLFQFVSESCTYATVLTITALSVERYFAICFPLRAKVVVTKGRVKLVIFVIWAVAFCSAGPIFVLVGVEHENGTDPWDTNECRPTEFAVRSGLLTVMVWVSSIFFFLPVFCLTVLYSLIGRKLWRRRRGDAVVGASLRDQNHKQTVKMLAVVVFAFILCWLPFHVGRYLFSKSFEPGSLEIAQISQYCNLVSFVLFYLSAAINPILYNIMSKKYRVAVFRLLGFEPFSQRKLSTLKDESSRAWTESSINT
Assay: cell-based or functional assay

B1: H-Mamb-S(O-octanoyl)-FLSPEHQRVQQRKESKKPPAKLQPR-OH (peptide)
peptide: H-[3Amb]S(Octanoyl)FLSPEHQRVQQRKESKKPPAKLQPR-OH
SMILES: CCCCCCCC(=O)OC[C@H](NC(=O)c1cccc(CN)c1)C(=O)N[C@@H](Cc1ccccc1)C(=O)N[C@@H](CC(C)C)C(=O)N[C@@H](CO)C(=O)N1CCC[C@H]1C(=O)N[C@@H](CCC(=O)O)C(=O)N[C@@H](Cc1c[nH]cn1)C(=O)N[C@@H](CCC(N)=O)C(=O)N[C@@H](CCCNC(=N)N)C(=O)N[C@H](C(=O)N[C@@H](CCC(N)=O)C(=O)N[C@@H](CCC(N)=O)C(=O)N[C@@H](CCCNC(=N)N)C(=O)N[C@@H](CCCCN)C(=O)N[C@@H](CCC(=O)O)C(=O)N[C@@H](CO)C(=O)N[C@@H](CCCCN)C(=O)N[C@@H](CCCCN)C(=O)N1CCC[C@H]1C(=O)N1CCC[C@H]1C(=O)N[C@@H](C)C(=O)N[C@@H](CCCCN)C(=O)N[C@@H](CC(C)C)C(=O)N[C@@H](CCC(N)=O)C(=O)N1CCC[C@H]1C(=O)N[C@@H](CCCNC(=N)N)C(=O)O)C(C)C
EC50 (nM); Ca2+ induction in HEK293 cells stably expressing the human ghrelin receptor: 1.56 nM

B2: H-[cACC]-S(O-octanoyl)-FLSPEHQRVQQRKESKKPPAKLQPR-OH (peptide)
peptide: H-[Achc(cis-1,4)]S(Octanoyl)FLSPEHQRVQQRKESKKPPAKLQPR-OH
SMILES: CCCCCCCC(=O)OC[C@H](NC(=O)[C@H]1CC[C@@H](N)CC1)C(=O)N[C@@H](Cc1ccccc1)C(=O)N[C@@H](CC(C)C)C(=O)N[C@@H](CO)C(=O)N1CCC[C@H]1C(=O)N[C@@H](CCC(=O)O)C(=O)N[C@@H](Cc1c[nH]cn1)C(=O)N[C@@H](CCC(N)=O)C(=O)N[C@@H](CCCNC(=N)N)C(=O)N[C@H](C(=O)N[C@@H](CCC(N)=O)C(=O)N[C@@H](CCC(N)=O)C(=O)N[C@@H](CCCNC(=N)N)C(=O)N[C@@H](CCCCN)C(=O)N[C@@H](CCC(=O)O)C(=O)N[C@@H](CO)C(=O)N[C@@H](CCCCN)C(=O)N[C@@H](CCCCN)C(=O)N1CCC[C@H]1C(=O)N1CCC[C@H]1C(=O)N[C@@H](C)C(=O)N[C@@H](CCCCN)C(=O)N[C@@H](CC(C)C)C(=O)N[C@@H](CCC(N)=O)C(=O)N1CCC[C@H]1C(=O)N[C@@H](CCCNC(=N)N)C(=O)O)C(C)C
EC50 (nM); Ca2+ induction in HEK293 cells stably expressing the human ghrelin receptor: 0.379 nM

B3: H-[tACC]-S(O-octanoyl)-FLSPEHQRVQQRKESKKPPAKLQPR-OH (peptide)
peptide: H-[Achc(trans-4)]S(Octanoyl)FLSPEHQRVQQRKESKKPPAKLQPR-OH
SMILES: CCCCCCCC(=O)OC[C@H](NC(=O)[C@H]1CC[C@H](N)CC1)C(=O)N[C@@H](Cc1ccccc1)C(=O)N[C@@H](CC(C)C)C(=O)N[C@@H](CO)C(=O)N1CCC[C@H]1C(=O)N[C@@H](CCC(=O)O)C(=O)N[C@@H](Cc1c[nH]cn1)C(=O)N[C@@H](CCC(N)=O)C(=O)N[C@@H](CCCNC(=N)N)C(=O)N[C@H](C(=O)N[C@@H](CCC(N)=O)C(=O)N[C@@H](CCC(N)=O)C(=O)N[C@@H](CCCNC(=N)N)C(=O)N[C@@H](CCCCN)C(=O)N[C@@H](CCC(=O)O)C(=O)N[C@@H](CO)C(=O)N[C@@H](CCCCN)C(=O)N[C@@H](CCCCN)C(=O)N1CCC[C@H]1C(=O)N1CCC[C@H]1C(=O)N[C@@H](C)C(=O)N[C@@H](CCCCN)C(=O)N[C@@H](CC(C)C)C(=O)N[C@@H](CCC(N)=O)C(=O)N1CCC[C@H]1C(=O)N[C@@H](CCCNC(=N)N)C(=O)O)C(C)C
EC50 (nM); Ca2+ induction in HEK293 cells stably expressing the human ghrelin receptor: 1.89 nM

B4: H-Inp-S-S(O-octyl)-FLSPEHQRV-K(hexadecanoyl)-QRKESKKPPAKLQPR-OH (peptide)
peptide: H-[Inp]SS(Octyl)FLSPEHQRVK(Palmitoyl)QRKESKKPPAKLQPR-OH
SMILES: CCCCCCCCCCCCCCCC(=O)NCCCC[C@H](NC(=O)[C@@H](NC(=O)[C@H](CCCNC(=N)N)NC(=O)[C@H](CCC(N)=O)NC(=O)[C@H](Cc1c[nH]cn1)NC(=O)[C@H](CCC(=O)O)NC(=O)[C@@H]1CCCN1C(=O)[C@H](CO)NC(=O)[C@H](CC(C)C)NC(=O)[C@H](Cc1ccccc1)NC(=O)[C@H](COCCCCCCCC)NC(=O)[C@H](CO)NC(=O)C1CCNCC1)C(C)C)C(=O)N[C@@H](CCC(N)=O)C(=O)N[C@@H](CCCNC(=N)N)C(=O)N[C@@H](CCCCN)C(=O)N[C@@H](CCC(=O)O)C(=O)N[C@@H](CO)C(=O)N[C@@H](CCCCN)C(=O)N[C@@H](CCCCN)C(=O)N1CCC[C@H]1C(=O)N1CCC[C@H]1C(=O)N[C@@H](C)C(=O)N[C@@H](CCCCN)C(=O)N[C@@H](CC(C)C)C(=O)N[C@@H](CCC(N)=O)C(=O)N1CCC[C@H]1C(=O)N[C@@H](CCCNC(=N)N)C(=O)O
EC50 (nM); Ca2+ induction in HEK293 cells stably expressing the human ghrelin receptor: 2.55 nM

B5: H-Inp-S-S(O-octyl)-FLSPEHQRVQQRKES-K(hexadecanoyl)-KPPAKLQPR-OH (peptide)
peptide: H-[Inp]SS(Octyl)FLSPEHQRVQQRKESK(Palmitoyl)KPPAKLQPR-OH
SMILES: CCCCCCCCCCCCCCCC(=O)NCCCC[C@H](NC(=O)[C@H](CO)NC(=O)[C@H](CCC(=O)O)NC(=O)[C@H](CCCCN)NC(=O)[C@H](CCCNC(=N)N)NC(=O)[C@H](CCC(N)=O)NC(=O)[C@H](CCC(N)=O)NC(=O)[C@@H](NC(=O)[C@H](CCCNC(=N)N)NC(=O)[C@H](CCC(N)=O)NC(=O)[C@H](Cc1c[nH]cn1)NC(=O)[C@H](CCC(=O)O)NC(=O)[C@@H]1CCCN1C(=O)[C@H](CO)NC(=O)[C@H](CC(C)C)NC(=O)[C@H](Cc1ccccc1)NC(=O)[C@H](COCCCCCCCC)NC(=O)[C@H](CO)NC(=O)C1CCNCC1)C(C)C)C(=O)N[C@@H](CCCCN)C(=O)N1CCC[C@H]1C(=O)N1CCC[C@H]1C(=O)N[C@@H](C)C(=O)N[C@@H](CCCCN)C(=O)N[C@@H](CC(C)C)C(=O)N[C@@H](CCC(N)=O)C(=O)N1CCC[C@H]1C(=O)N[C@@H](CCCNC(=N)N)C(=O)O
EC50 (nM); Ca2+ induction in HEK293 cells stably expressing the human ghrelin receptor: 2.52 nM

B6: H-Inp-S-S(O-octyl)-FLSPEHQRVQQRKESKKPPAKL-K(hexadecanoyl)-PR-OH (peptide)
peptide: H-[Inp]SS(Octyl)FLSPEHQRVQQRKESKKPPAKLK(Palmitoyl)PR-OH
SMILES: CCCCCCCCCCCCCCCC(=O)NCCCC[C@H](NC(=O)[C@H](CC(C)C)NC(=O)[C@H](CCCCN)NC(=O)[C@H](C)NC(=O)[C@@H]1CCCN1C(=O)[C@@H]1CCCN1C(=O)[C@H](CCCCN)NC(=O)[C@H](CCCCN)NC(=O)[C@H](CO)NC(=O)[C@H](CCC(=O)O)NC(=O)[C@H](CCCCN)NC(=O)[C@H](CCCNC(=N)N)NC(=O)[C@H](CCC(N)=O)NC(=O)[C@H](CCC(N)=O)NC(=O)[C@@H](NC(=O)[C@H](CCCNC(=N)N)NC(=O)[C@H](CCC(N)=O)NC(=O)[C@H](Cc1c[nH]cn1)NC(=O)[C@H](CCC(=O)O)NC(=O)[C@@H]1CCCN1C(=O)[C@H](CO)NC(=O)[C@H](CC(C)C)NC(=O)[C@H](Cc1ccccc1)NC(=O)[C@H](COCCCCCCCC)NC(=O)[C@H](CO)NC(=O)C1CCNCC1)C(C)C)C(=O)N1CCC[C@H]1C(=O)N[C@@H](CCCNC(=N)N)C(=O)O
EC50 (nM); Ca2+ induction in HEK293 cells stably expressing the human ghrelin receptor: 1.18 nM
